Laboratory results reported in the DeepSol protein solubility set.

Experiment: soluble on expression in E. coli; label from the status in PepcDB or PDB records

| Sequence | soluble on expression in E. coli |
| --- | --- |
| MTIEKIFTPQDDAFYAVITHAAGPQGALPLTPQMLMESPSGNLFGMTQNAGMGWDANKLTGKEVLIIGTQGGIRAGDGRPIALGYHTGHWEIGMQMQAAAKEITRNGGIPFAAFVSDPCDGRSQGTHGMFDSLPYRNDAAIVFRRLIRSLPTRRAVIGVATCDKGLPATMIALAAMHDLPTILVPGGATLPPTVGEDAGKVQTIGARFANHELSLQEAAELGCRACASPGGGCQFLGTAGTSQVVAEALGLALPHSALAPSGQAVWLEIARQSARAVSELDSRGITTRDILSDKAIENAMVIHAAFGGSTNLLLHIPAIAHAAGCTIPDVEHWTRINRKVPRLVSVLPNGPDYHPTVRAFLAGGVPEVMLHLRDLGLLHLDAMTVTGQTVGENLEWWQASERRARFRQCLREQDGVEPDDVILPPEKAKAKGLTSTVCFPTGNIAPEGSVIKATAIDPSVVGEDGVYHHTGRVRVFVSEAQAIKAIKREEIVQGDIMVVIGGGPSGTGMEETYQLTSALKHISWGKTVSLITDARFSGVSTGACFGHVSPEALAGGPIGKLRDNDIIEIAVDRLTLTGSVNFIGTADNPLTPEEGARELARRQTHPDLHAHDFLPDDTRLWAALQSVSGGTWKGCIYDTDKIIEVINAGKKALGI | not soluble |
| MRGEVKKIIEAIGDIFIGHEDVIRKVLAVALVNGNILFEDYPGLGKTLLAKAFAKILGLKFKRIQFTPDLLPADIIGTKVWKPEKGAFEVVKGPIFTNILLADEINRAPPKTQSALLEAMEERQVTIEGETFKLERPFFIIATQNPLELEGTYPLPEAQLDRFLVRLNIGYPRNEEDELEILKARLRWGKDDPTSDISPIISREDFIRMQEEVERGVIIHDDILRYIVRLVRRIREDERIEAGPSPRGGLALMKLAKANAFIEGRSYVIPDDVKYFAVEALAHRIVLKPEYSLERGIAEEIIREVLEEVPVPKDIRY | soluble |
| MTYPIPKPREKSRWPNLSQGSLPLALARYLPHKRLKVVLTQDAEQALRLQTAWRFFRPHDTAVFLPDWETLPYERFSPHQDLVSERLSALWQIKSGAADVLFVPVATAMQKLPPVPFLAGRTFWLKTGQTLDIGRLKSDLVDAGYNHVSHVVAAGEFAVRGGIVDLFPMGSEMPYRIDLFDDEIDSIKTFDTETQRTISPVSEIRLLPAHEFPTDSEAQKIFRSRFREEVDGNPNDAAVYKAVSNGHFGAGVEYYLPLFFENELETLFDYIGEDALFVSLDDVHAEANRFWSDVKSRYAMAQGDETYPPLLPQYLYLSADVFAGRLKNYGQVLPDVSGKEYTLPDLAVNRQADEPLQALKDFQTAFDGRILLCAESLGRRETMLGFLQQNGLKAKPVSDWQGFLSAHEPLMITVAPLAYGFKLGGLQSPNQQQPTPSPVGEGWGEGKAVAAQTEFSAAAINPLPSPLPQEREQSAAAVSDSLKAAAVSTESSLPLGTSNLHGQIRQQPAPSPVGEGWGEGKAVAAQTEFPASATNPLPSPLPQEREQSAAAVSDDLKTKSSLHPVANNLHGQIRQQPTPSPVGEGWGEGKAVAAQTEFSAAATNPLPSPLPQEREQSAAVVSDSLKAAAVSTESSLPPGKSNLHGQIQQQPAPSPVGEGWGEGKAVAAQSAIAVITESDLYQYVARSRIHNRRKKHAAVSDGLLRDLAEINIGDPVVHEEHGIGRYMGLVTMDLGGETNEMMLLEYAGEAQLYVPVSQLHLISRYSGQAHENIALHKLGSGAWNKAKRKAAEKARDTAAELLNLYAQRAAQSGHKFEINELDYQAFADGFGYEETEDQAAAIAAVIKDLTQAKPMDRLVCGDVGFGKTEVALRAAFVAVMGGKQVAVLAPTTLLVEQHAQNFADRFADFPVKVASLSRFNNSKATKAALEGMADGTVDIVIGTHKLVQDDIKFKNLGLVIIDEEHRFGVRQKEQLKRLRANVDILTMTATPIPRTLSMALEGLRDFSLITTAPSRRLAVKTFVKPFSEGSVREAVLRELKRGGQVFFLHNEVDTIENMRERLETLLPEARIGVAHGQLRERELEQVMRDFLQQRFNVLLCSTIIETGIDIPNANTIIINRADKFGLAQLHQLRGRVGRSHHQAYAYLLTPEYITKDAEKRLDAIAAADELGAGFTLAMQDLEIRGAGEILGEGQSGEMIQVGFTLYTEMLKQAVRDLKKGRQPDLDAPLGITTEIKLHSPALLPEDYCPDIHERLVLYKRLAVCETVQQINTIHEELVDRFGLPEQPVKTLIESHHLRLMAKELGIDAIDAAGEAVTVTFGKNNNVDPTEIILLIQNDKKYRLAGADKLRFTAEMENIEVRINTVKNVLKTLQNRCLPK | not soluble |
| MSFFHANQREALNQSLSELQGQINVSFEFFPPRTSEMEDTLWSSIDRLSTLKPKFVSVTYGANSGERDRTHSIIKGIKERTGLEAAPHLTCIDASPTQLRDIAIDYWNSGIRHIVALRGDLPPNSGKPEMYACDLVGLLKDVGDFDISVAAYPEIHPEAKSAQADLINLKRKIDAGANRAITQFFFDVESYLRFRDRCVATGIDVEIVPGILPVSNFKQLQRFATMTNVRVPNWMTSIFDGLDNDPETRKMVGASVAMDMVKILSREGVKDFHFYTLNRAELSYAICHTLGVRP | not soluble |
| DIQMTQSPSSLSASVGDRVTITCKASQDIKSFLSWYQQKPEKAPKSLIYYATSLADGVPSRFSGSGSGTDYTLTISSLQPEDFATYYCLQHGESPYTFGGGTKVEIKRTVAAPSVFIFPPSDEQLKSGTASVVCLLNNFYPREAKVQWKVDNALQSGNSQESVTEQDSKDSTYSLSSTLTLSKADYEKHKVYACEVTHQGLSSPVTKSFNRGECT | soluble |
| MIQLKNVGITLSGKGYERFSLENINLEVNGEKVIILGPNGSGKTTLLRAISGLLPYSGNIFINGMEVRKIRNYIRYSTNLPEAYEIGVTVNDIVYLYEELKGLDRDLFLEMLKALKLGEEILRRKLYKLSAGQSVLVRTSLALASQPEIVGLDEPFENVDAARRHVISRYIKEYGKEGILVTHELDMLNLYKEYKAYFLVGNRLQGPISVSELLESSIVEGERNDALLVLDIMDKKVSIVKGDLGMKFGALGSLNRIYGIIGA | soluble |
| DGMTKLTFGGHPFLLGFEQLERLVERTAKTASEGYPPFNIEAVAENAYRITLAVAGFREDDIAITVEDRQLVVRGRQAEDPAERVFLHRGIASRAFQRSFVLADGVEVAGATMEHGLLHIDLHRQVPQAVVQTIPIGRNR | not soluble |
| MGHHHHHHSHDNLSVPLMEEDLDGSSGVLFPFYDADTSMLYVVGKGDGNIRYYEVSADKPHLSYLTEYRSYNPQKGIGVMPKRGLDVSSCEIFRFYKLITTKSLIEPISMIVPRRSESYQEDIYPPTAGAQPSLTAQEWLSGMNRDPILVSLRPGSELLRPHPLPAERPIFNSMAPASPRLLNQTEKLAAEDGWRSS | not soluble |
| MSLGQDGFRLADYIREHVENGDKLVIRVSYHNTSLGFANPMREGVEKAKRELGVDAELIGPANGSAQEQVSELQTLISQQKVDGLAVSSASNDALKPVIAQAYNAGIPIISFNTNNPGSKQMAFVGQDLVQSGRFEAEQLRKELGDRKGKVVVFSVDTGAGWSNDRFSGFEAGMEGAEGIQIEGPINSGNEPRQAFNAVQNTMTANPDAIAIASLDCCSVDAAAKWVQQNGKKGEIIVVGFDVLPQTADFIRNGVIQFTISQNPVEQGYQSVKILNDFLKKNKPLRDVNTGTKLVDKSNIDEVPLEEGHHHHHH | soluble |
| DHDFKYEVSANLSTVRNRVTSLGFGTDSYISGAYITNVGEEIGKFYGWVYDGIARTQADLDNHATQEGAQIGDCLYKDVSGPDGKPDGKVDANDQVVLGSGMPKINFGLNARFEYKRFDLSIATFGALNYHVSDDIHNSLNSCYGWGNKDVAMLDANRFSEDGSTYLSSVPRTYVTNSASLAWNDLFSDRKIQNAAYWKIANIELGYNFPNEWFGKYVSDVRFYVSAQNLHTFTGYKGYNVDYAGGTFTPGYNFCSYPTARTFMCGVHFTF | not soluble |
| MSEIGTGFPFDPHYVEVLGERMHYVDVGPRDGTPVLFLHGNPTSSYLWRNIIPHVAPSHRCIAPDLIGMGKSDKPDLDYFFDDHVRYLDAFIEALGLEEVVLVIHDWGSALGFHWAKRNPERVKGIACMEFIRPIPTWDEFHHTEVAEEQDHAEAARETFQAFRTADVGRELIIDQNAFIERVLPGGVVRPLTEVEMDHYREPFLKPVDREPLWRFPNELPIAGEPANIVALVEAYMNWLHQSPVPKLLFWGTPGALIPPAEAARLAESLPNCKTVDIGPGLHYLQEDNPDLIGSEIARWLPAL | soluble |
| MSLIRIDFSQLHQAREDAAAAMPSIAGKKILMGFWHNWPAGAADGYQQGSFANIALEDVPSEYNVVAVAFMKGRGIPTFQPYNLSDAEFRRQVGVLNAQGRAVLISLGGADAHIELHAGQEQALAAEIVRLVETYGFDGLDIDLEQSAIDLADNQRVLPAALKLVREHYAGQGKHFIVSMAPEFPYLHKNGKYVPYLQALEGVYDFIAPQYYNQGGDGLWVQEANGGKGAWIAQNNDAMKEDFLYYLTESLATGSRDFVRIPAQRLAIGLPSNVDAAATGYVIDPAAVSNAFRRLEAAGHAIKGLMTWSVNWDDGLNKRGERYNWEFRKRYASLIHDGEGGDQRPAAPQGLRLLERGETSLVLAWNASSGQRPIDYYSLYRDGAMVGQSAALGSTDSGLTADTRYSYFVTATDTQGNQSLPSEGLEVSTSGGAVDPQFPQWRENQAYRVDDGVTYEGLRYLCLQAHTSNSGWTPPVAFTLWREGGSHHHHHH | soluble |
| MSLTNITQCKNRRCGGELGDFTGYIESPNYPGNYPANTECTWTINPPPKRRILIVVPEIFLPIEDDCGDYLVMRKTSSSNSVTTYETCQTYERPIAFTSRSKKLWIQFKSNEGNSARGFQVPYVTYDEDYQELIEDIVRDGRLYASENHQEILKDKKLIKALFDVLAHPQNYFKYTAQESREMFPRSFIRLLRSKVSRFLRPYKEGHHHHHH | not soluble |
| MGSDKIHHHHHHLIPFFLDLVSRTDEARRAFELHPVVTHAAANGMTLQRYRRLLLELYHVVWHFNTVSAAGASRLQDTHKQVRYFLYEHMHEESGHEEWVLADLEQMGVTRDIALNHRPSHYTLALVGYYYYAADRKHPASVLGMLYALEVIASVYGGTLTSAVKESLLLDDERGVSFISSHATLDAEHMADLKTVLDTIEDDEAKDAIEEAVLLTFNHLTHIMVEAHLEEGDISGAPAVNAEHFAISAEKAAA | not soluble |
| MSEAKDNGSRDEVLVPHKNCRKNTTVPGKKGEEKSLAPVFAEKLISPSRRGAKLKDRESHQENEDRNSELDQDEEDKESFCRGFPMSGCELETSCCVCHSTALGERFC | soluble |
| MSLKITNVEAVALDVPIMVRHRKDPFVRQCNLVRIDTDSGISGYGYTSPGEWHSTAAKVVNDMFRDVLIGQNPCKINSVISSLSTRFNRHRATGAWASAVSMVDIGLWDLLGKLYGVPTSVLLGGARTEVPVYITFGLAEYSTEELVDTVSHLVDEGHTRFKMIVGGLRSRPITREESLRPGGSHWFQGFTEDLLLNDVKRVAAVREAIGPDKGLMVDGNGAFPLGEAKRLAQNLEPFNLIWFEEPVLGNDPDLLQRLRDQTTVPIAAGQNIGSLAAHRTLIESKSYDICQLNVTHCGGYSEALKIAHLAEAHNMPIATGGAQPHHNMHFHAGVQNGGLVEFHWLSWKVGEALFVDPPAPRNGFVSLTDEPGLGLEVRPDAIEKFRVEGHHHHHH | soluble |
| MGSDKIHHHHHHMSTPIGLGLPPTPPPVLAPRRKTRQLMVGKVGVGSDHPISVQSMTTTKTHDINGTLQQIAQLTATGCDIVRVACPKTVDAEALPIIAKKSPIPVIADIHFQPKYIFAAIDAGCAAVRVNPGNIKEFDGRVKEVAKAAGDAGIPIRIGVNGGSLDKRILDKYHGKATPEALVESAMWEAGLFEEHGFGDIAISVKHSDPVLMVEAYRQLAEQSDYPLHLGVTEAGPKFMGTIKSSVAFGALLSQGIGDTIRVSLSADPVEEIKVGDQILQSLNLRPRKLEIVSCPSCGRAQVDVYSLAEEVTEALDGMEVPLRVAVMGCVVNGPGEARDADLGVASGNGKGQIFVKGEVIKTVPESQIVETLIEEAMRIAEEMDPEVLAAASASGMKAEVKVTK | not soluble |
